Experiments:
p97 antigen = target: T1, p97 antigen (Homo sapiens, UniProt P08582); assay: Surface plasmon resonance binding to immobilized p97 antigen; conditions: p97 immobilized on gold surface
T1 sequence (P08582 20-738): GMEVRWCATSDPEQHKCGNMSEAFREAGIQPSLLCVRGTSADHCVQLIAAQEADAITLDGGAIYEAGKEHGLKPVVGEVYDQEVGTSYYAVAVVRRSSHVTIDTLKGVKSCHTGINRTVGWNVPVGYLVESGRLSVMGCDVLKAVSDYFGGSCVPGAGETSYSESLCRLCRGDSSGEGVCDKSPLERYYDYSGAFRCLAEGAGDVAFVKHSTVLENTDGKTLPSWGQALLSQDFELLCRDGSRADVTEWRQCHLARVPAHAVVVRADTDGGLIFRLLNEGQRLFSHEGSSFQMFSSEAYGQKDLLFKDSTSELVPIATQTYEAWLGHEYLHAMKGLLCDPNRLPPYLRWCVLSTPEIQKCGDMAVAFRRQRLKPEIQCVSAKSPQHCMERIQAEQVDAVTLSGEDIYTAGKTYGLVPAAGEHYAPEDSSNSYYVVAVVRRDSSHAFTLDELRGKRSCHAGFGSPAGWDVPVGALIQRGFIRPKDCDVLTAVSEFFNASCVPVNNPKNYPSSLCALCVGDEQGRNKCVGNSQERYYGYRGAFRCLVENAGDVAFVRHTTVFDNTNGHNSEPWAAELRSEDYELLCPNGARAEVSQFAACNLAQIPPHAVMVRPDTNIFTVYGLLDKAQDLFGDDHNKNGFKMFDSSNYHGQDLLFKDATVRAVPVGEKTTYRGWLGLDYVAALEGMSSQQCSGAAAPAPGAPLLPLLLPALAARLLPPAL
Method: The binding characteristics of the sFv portion of the fusion protein were determined using a fluorescent activated cell sorting competition assay in which fusion protein and FITC-modified whole L49 competed for binding to cell-surface antigens on SK-MEL 28 melanoma cells. […] More detailed information about binding was obtained using surface plasmon resonance, which allowed the measurement of the on and off rates of L49-sFv-bL binding to the p97 antigen immobilized on a gold surface (Table 1).

[1] = Tissue distribution of immunoconjugates in nude mice bearing s.c. 3677 melanoma xenografts; format: in vivo
Method: Conjugate Localization. Subcutaneous 3677 melanoma tumors were established in female athymic nu/nu mice (8-12 weeks old, Harlan Sprague-Dawley, Indianapolis, Ind.) by transplanting tumors that had been previously passaged as previously described (Kerr et al., Cancer Res., 55:3558-3563 (1995)). Tumor bearing mice were injected i.v. with L49-sFv-bL (1 or 4 mg mAb component/kg) or with L49-Fab'-bL (1.8 mg mAb component/kg). At various time intervals, the mice were anesthetized, bled through the orbital plexus, and sacrificed. Tissues were removed and homogenized in PBS containing 15 μg/ml aprotinin (2 mL/g tissue). To the homogenate was added 50 mM sodium phosphate containing 100 mM NaCl at pH 11.2 (10 ml/g tissue), and the suspension was mixed. After 20 min at room temperature, 3M sodium phosphate at pH 7.0 was added (2 ml/g tissue), and the mixture was mixed and centrifuged.
Quantification of conjugate concentrations was accomplished using a direct enzyme immunoassay. Polystyrene 96-well microtiter plates were coated with an affinity-purified rabbit polyclonal antisera to wild type E. cloacae bL (1 μg/ml), and were then blocked with specimen diluent (Genetic Systems Corp.). Serially diluted tissue extracts or purified samples (L49-sFv-bL as a standard for the fusion protein samples, L49-Fab'-bL as a standard for the L49-Fab'-bL samples) were added to the wells and allowed to bind for 3 h at room temperature. The plates were washed and developed by the addition of 0.1 ml of nitrocefin (O'Callaghan et al., Antimicrobial Agents and Chemotherapy, 1:283-288 (1972)) at 0.1 mM in PBS containing 1% dimethylformamide. Absorbance measurements were read in an ELISA plate reader using a 490 nm filter with 630 nm as the reference wavelength.
In Vivo Localization. Biodistribution studies of L49-sFv-bL and L49-Fab'-bL were carried out in nude mice bearing subcutaneous (s.c.) 3677 melanoma tumor xenografts. The conjugates were injected i.v., and at various time points tissues were removed and extracted under alkaline conditions to disrupt antigen-antibody interactions. The samples were then trapped a polyclonal antiserum to bL, and bL activity was measured using nitrocefin as a colorimetric indicator (O'Callaghan et al, Antimicrobial Agents and Chemotherapy, 1:283-288 (1972)).

B1: L49-sFv-bL: recombinant fusion protein: L49 anti-p97 single-chain Fv (VH-218 linker-VL) fused to r2-1 mutant E. cloacae β-lactamase, SEQ ID NO: 20 (protein)
chain: MKYLLPTAAAGLLLLAAQPAMAEVQLQESGPSLVKPSQTLSLTCSVTGDSITSGYWNWIRKFPGNKLEYMGYISDSGITYYNPSLKSRISITRDTSKNQYYLQLNFVTAEDTATYNCARRTLATYYAMDYWGQGTSVTVSSGSTSGSGKPGSGEGSTKGDFVMTQTPLSLPVSLGDQASISCRASQSLVHSNGNTYLHWYLQKPGQSPKLLIYRVSNRFSGVPDRFSGSGSGTDFTLKISRVEAEDLGVYFCSQSTHVPPTFGGGTKLEIKRTPVSEKQLAEVVANTITPLMKAQSVPGMAVAVIYQGKPHYYTFGKADIAANKPVTPQTLFELGSISKTFTGVLGGDAIARGEISLDDAVTRYWPQLTGKQWQGIRMLDLATYTAGGLPLQVPDEVTDNASLLRFYQNWQPQWKPGTTRLYANASIGLFGALAVKPSGMPYEQAMTTRVLKPLKLDHTWINVPKAEEAHYAWGYRDGKAVRVSPGMLDAQAYGVKTNVQDMANWVMANMAPENVADASLKQGIALAQSRYWRIGSMYQGLGWEMLNWPVEANTVVETSFGNVALAPLPVAEVNPPAPPVKASWVHKTGSTGGFGSYVAFIPEKQIGIVMLANTSYPNPARVEAAYHILEALQTSEFE
p97 antigen
  Kd: 1 nM
  koff: 0.00042 s⁻¹
[1]; 1 mg/kg i.v., 4 hrs
  tumor/tissue ratios Blood: 13
  tumor/tissue ratios Kidney: 41
  tumor/tissue ratios Liver: 52
  tumor/tissue ratios Spleen: 79
  tumor/tissue ratios Tumor: 1
[1]; 1 mg/kg i.v., 12 hrs
  tumor/tissue ratios Blood: 66
  tumor/tissue ratios Kidney: > 177
  tumor/tissue ratios Liver: > 177
  tumor/tissue ratios Spleen: > 177
  tumor/tissue ratios Tumor: 1
[1]; 1 mg/kg i.v., 24 hrs
  tumor/tissue ratios Blood: 105
  tumor/tissue ratios Kidney: > 70
  tumor/tissue ratios Liver: > 70
  tumor/tissue ratios Spleen: > 70
  tumor/tissue ratios Tumor: 1
[1]; 4 mg/kg i.v., 12 hrs
  tumor/tissue ratios Blood: 81
  tumor/tissue ratios Kidney: > 240
  tumor/tissue ratios Liver: > 240
  tumor/tissue ratios Spleen: > 240
  tumor/tissue ratios Tumor: 1
[1]; 4 mg/kg i.v., 24 hrs
  tumor/tissue ratios Blood: 141
  tumor/tissue ratios Kidney: > 290
  tumor/tissue ratios Liver: > 290
  tumor/tissue ratios Spleen: > 290
  tumor/tissue ratios Tumor: 1
[1]; 4 mg/kg i.v., 48 hrs
  tumor/tissue ratios Blood: 150
  tumor/tissue ratios Tumor: 1
[1]; 4 mg/kg, 24-48 h after the conjugate was administered
  tumor to blood ratios: 141-151

Reference: patent US6132722A, “Recombinant antibody-enzyme fusion proteins” (Bristol-Myers Squibb Company, priority 1998, dated 2000)
